# In patent US20260103719:
# B1: mCDPK8-His protein without kinase activity (CDPK8 lacking two key amino acids) (protein)
# chain: MGNCCGTPGNSSENKKKKNKPNPFALDYGATQASGGDGNKLVVLKDPTGHNIQEKYDLGCERGEFGVTYLCTDVDTGDKYACKSISKKKLRTAVDIDDVRREVEIMKHLPKHPNIVTLKDTYEDDNAVHIVMELCEGGELFDRIVARGHYTERAAAVIMKTIVEVVQMCHMHGVMHRDLKPENFLFGNKKETAPLKAIDFGLSVFFKPGERFNEIVGSPYYMAPEVLKRNYGPEVDVWSAGVILYILLCGVPPFWAETEQGVAQAIIRSVVDFKRDPWPKVSDNAKDLVKKMLDPDPTRRLTAQQVLEHTWLQNIKKAPNVSLGETVKARLKQFSVMNKLKKRALTIMAEFLSAEEVAGMKDAFDMMDTGKKGKINLGELKNGLQKLGHQIPDVDLQILMEAADVDGDGSLNYGEFVAVSVHLRKMANDEHLHKAFSVFDRDQSGYIEIEELRSALSDEDGGNSEEVINAIMHDVDTDKDGRISYEEFAAMMKAGTDWRKASRQYSRERFNSLSLKLMRDGSIQVGKEEGR
# B2: CDPK8-HIS protein (tomato calcium-dependent protein kinase 8, Solyc11g065660, His-tagged, expressed in vitro and purified) (protein)
# chain: MGNCCGTPGNSSENKKKKNKPNPFALDYGATQASGGDGNKLVVLKDPTGHNIQEKYDLGCELGRGEFGVTYLCTDVDTGDKYACKSISKKKLRTAVDIDDVRREVEIMKHLPKHPNIVTLKDTYEDDNAVHIVMELCEGGELFDRIVARGHYTERAAAVIMKTIVEVVQMCHMHGVMHRDLKPENFLFGNKKETAPLKAIDFGLSVFFKPGERFNEIVGSPYYMAPEVLKRNYGPEVDVWSAGVILYILLCGVPPFWAETEQGVAQAIIRSVVDFKRDPWPKVSDNAKDLVKKMLDPDPTRRLTAQQVLEHTWLQNIKKAPNVSLGETVKARLKQFSVMNKLKKRALTIMAEFLSAEEVAGMKDAFDMMDTGKKGKINLGELKNGLQKLGHQIPDVDLQILMEAADVDGDGSLNYGEFVAVSVHLRKMANDEHLHKAFSVFDRDQSGYIEIEELRSALSDEDGGNSEEVINAIMHDVDTDKDGRISYEEFAAMMKAGTDWRKASRQYSRERFNSLSLKLMRDGSIQVGKEEGR
# How the values were obtained:
# [1] = target: SuSy3-HIS protein (tomato sucrose synthase SuSy3, Solyc07g042550.2.1, His-tagged, expressed in vitro and purified)
# Chain of SuSy3-HIS protein (tomato sucrose synthase SuSy3, Solyc07g042550.2.1, His-tagged, expressed in vitro and purified) (chain, as listed by the source): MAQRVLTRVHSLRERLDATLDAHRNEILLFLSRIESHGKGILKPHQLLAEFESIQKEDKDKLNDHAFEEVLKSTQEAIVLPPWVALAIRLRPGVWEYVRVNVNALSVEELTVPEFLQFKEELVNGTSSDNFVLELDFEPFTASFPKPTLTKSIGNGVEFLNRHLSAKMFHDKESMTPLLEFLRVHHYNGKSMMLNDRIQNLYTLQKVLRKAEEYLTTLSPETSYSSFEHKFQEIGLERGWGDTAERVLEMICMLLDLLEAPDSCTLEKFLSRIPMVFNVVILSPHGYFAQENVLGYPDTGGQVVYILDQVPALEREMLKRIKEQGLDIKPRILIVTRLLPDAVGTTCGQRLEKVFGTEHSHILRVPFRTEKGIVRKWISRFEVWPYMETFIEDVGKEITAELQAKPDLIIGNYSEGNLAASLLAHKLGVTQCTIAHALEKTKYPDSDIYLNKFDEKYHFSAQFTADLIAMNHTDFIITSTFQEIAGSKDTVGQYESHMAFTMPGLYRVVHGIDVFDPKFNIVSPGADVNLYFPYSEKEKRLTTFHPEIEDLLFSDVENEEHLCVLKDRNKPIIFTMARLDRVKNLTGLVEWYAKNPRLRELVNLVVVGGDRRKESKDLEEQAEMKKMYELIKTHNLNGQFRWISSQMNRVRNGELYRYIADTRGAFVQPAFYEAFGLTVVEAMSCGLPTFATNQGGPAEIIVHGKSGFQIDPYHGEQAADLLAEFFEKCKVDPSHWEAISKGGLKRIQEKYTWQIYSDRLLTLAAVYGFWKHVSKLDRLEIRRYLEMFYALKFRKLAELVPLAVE
# [2] = target: SlSuSy3^S11A (SuSy3 protein with the serine at position 11 mutated to alanine)
# Chain of SlSuSy3^S11A (SuSy3 protein with the serine at position 11 mutated to alanine) (chain, as listed by the source S11A): as the sequence (chain, as listed by the source) above, with S11A counted along it
Protein,"in vitro phosphorylation (gamma-32P-ATP, SDS-PAGE, autoradiography) [1]",in vitro phosphorylation assay (autoradiography) [2],in vitro phosphorylation assay (autoradiography) [1],mass spectrometry of phosphorylated residues after co-incubation [1]
B1,the mCDPK8 protein lacking two key amino acids has no kinase activity and cannot phosphorylate the SuSy3 protein,–,–,–
B2,the CDPK8 protein itself has kinase activity and can phosphorylate the SuSy3 protein,"there is no autoradiographic band, indicating that CDPK8 cannot phosphorylate SISuSy3^S11A",CDPK8 can phosphorylate the serine at position 11 (S11) of the SuSy3 protein,"14 amino acid residues on the SuSy3 protein can be phosphorylated by CDPK8 protein, and the sites are T7, S11, T19, S152, S165, S174, T176, S191, S219, S360, T430, S535, T543, and S706 in sequence"
